Results taken from publication PMC3082530 (2011).

Tests used:
subtilisin Carlsberg [1] = target: T1, subtilisin Carlsberg (Bacillus licheniformis, UniProt P00780); assay: ITC
T1 chain: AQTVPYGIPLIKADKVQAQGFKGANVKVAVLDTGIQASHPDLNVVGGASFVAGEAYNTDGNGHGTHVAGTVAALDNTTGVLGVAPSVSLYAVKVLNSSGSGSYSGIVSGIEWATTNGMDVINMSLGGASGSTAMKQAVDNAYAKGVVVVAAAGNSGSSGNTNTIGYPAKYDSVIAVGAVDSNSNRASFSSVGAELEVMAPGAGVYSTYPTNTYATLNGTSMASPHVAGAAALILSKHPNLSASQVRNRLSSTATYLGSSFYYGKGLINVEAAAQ

subtilisin Carlsberg [2] = target: T1, subtilisin Carlsberg; assay: ITC; given as Ka

Kd (subtilisin Carlsberg [1]): 500 µM
Kd (subtilisin Carlsberg [2]): 526 µM
B1: VCTEEY peptide (CrSPI-1 domain 2 RSL) (peptide)
chain: VCTEEY
